{
  "source": "the nanobody polyreactivity screen of Harvey et al. (2022)",
  "data": [
    {"assay": "yeast display, Sf9 membrane polyspecificity reagent, FACS + sequencing; frameworks hold sequencing errors", "how_it_was_run": "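Galactose induction of a Saccharomyces cerevisiae BJ5465 synthetic nanobody display library ran 36–48 hours. The cells were then stained for 1 hour at 4 °C with 10% biotinylated, detergent-solubilized Sf9 membrane reagent, pulled down on streptavidin microbeads and FACS-sorted into low and high (top ~1%) gates on expression and reagent-binding fluorescence. Labels for polyreactivity follow the gate of origin.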", "values": [
      {"sequence": "QVQLVESGGGLVKAGGSLRLSCAASGIPFTFNAMGWYRQAPGKERELVAAITWSGGSTFYADSVKARFTISRDNAKITVYLQMNSLKQEDTAVYYCARETELYVRWLDYWGQGTQGTVSS", "polyreactivity (PSR sort gate)": "low polyreactivity"},
      {"sequence": "QVQLVESGGGLVKAGGSLRLSCAASGITFYEYAMGWYRQAPGKERELVAAITTGGTTNYADSVKGRFTISRDNAKNTVYLQMNSLKPEDTAVYYCAKDLDSGGRGYYWGQGTQVTVSS", "polyreactivity (PSR sort gate)": "low polyreactivity"},
      {"sequence": "QVQLVESGGGLVKAGGSLRLSCAASGLIFAYYDMGWYRQAPGKERELVASITGSGGDTYYADSVKGRFTISRDNAKNTVYLQMNSLKPEDTAVYYCNAYYGAAFTYWDDYWGQGTQVTVSS", "polyreactivity (PSR sort gate)": "low polyreactivity"},
      {"sequence": "QVQLVESGGGLVKAGGSLRLSCAASGLTFRNNAMGWYRQAPGIERELVASINSGRSTNYADSVKGRFTISRDNAKNTVYLQMNSLKREDTAVYVCATRYYWYTRDSYDYWGQGTQVTVSS", "polyreactivity (PSR sort gate)": "low polyreactivity"},
      {"sequence": "QVQLVESGGGLVKAGGSLRLSCAASGLTFTRYTMGWYRQAPGKERELVAAITSSGGSTYYADSVKGRFTISRDNAKNTVYLQRNSVKPEDTAVYYCAAPYPGTRGDGYWGLGTQVTVSS", "polyreactivity (PSR sort gate)": "high polyreactivity"},
      {"sequence": "QVQLVESGGGLVKAGGSLRLSCAASGRIFKIYAMGWYRQAPGKERELVAAISGRGGSTYYADSVKGRFTISRDNAKNTVYLQLNSLKPEDTAVYYCAAVGYGFSAYSTYDYWGQGTQVTVSS", "polyreactivity (PSR sort gate)": "high polyreactivity"},
      {"sequence": "QVQLVESGGGLVKAGGSLRLSCAASGRIFYLNAMGWYRQAPGKERELVAGIRKRGGSTYYADSVKGRFTISRDNAKNTVYLQMNSLKPEDTAVYYSAGQPALTYRFYYWGQGTQVTVSS", "polyreactivity (PSR sort gate)": "high polyreactivity"},
      {"sequence": "QVQLVESGGGLVKAGGSLRLSCAASGRNFWFNAMGWYRQAPGKERELVAAIRNRGGSTYYADSVKGRFTISRDNAKNTVYLQMNSLKPEDTAVYYCARAPEGTGGKYGYWGQGTQVTVSS", "polyreactivity (PSR sort gate)": "high polyreactivity"},
      {"sequence": "QVQLVESGGGLVKAGGSLRLSCAASGRTFGYYAMGWYRQSPGKERELVADIRQSGGRTYYADSVKGRFRISRDNAKNTVYLQMNSLKPVDTAVYYCAARRSYLAYTYRRSYPMDSWGQGTQVTVSS", "polyreactivity (PSR sort gate)": "high polyreactivity"},
      {"sequence": "QVQLVESGGGLVKAGGSLRLSCAASGRTFVYYAMGWYRQAPGKERELVAAISGSGGSTYYADSVKGRFTISRDNAKNTVYLQMNSLKPEDTAVYYCAAGPRGRYRYGYWGQGTQVTVSS", "polyreactivity (PSR sort gate)": "high polyreactivity"},
      {"sequence": "QVQLVESGGGLVKAGGSLRLSCAASGSIFDFYVMGWYRQAPGKERELVAAISSGGSTYYADSVKGRFTISRDNAKNTVYIKMNSLKPEDTAVYYCAAYPEYVSGAWYDYWGQGTQVTVSS", "polyreactivity (PSR sort gate)": "low polyreactivity"},
      {"sequence": "QVQLVESGGGLVKAGGSLRLSCAASGSIFLYYSMGWYRQAPGKERELVAAITGGGCTNYADSEKGRFTISRDHAKNNVYLLMNSLKPEDTSVYYWAADASGQFPYSYYNYDYDYWGQGTQVSVSS", "polyreactivity (PSR sort gate)": "low polyreactivity"},
      {"sequence": "QVQLVESGGGLVKAGGSLRLSCAASGSILGAYNMGWYRQAPGKERELVSAITRRGGSTYYADSVKGRFTISRDNAKNTVYLQMNSLNPEDTAVYYCNAEYGFWYDYLVVPYDYWGQGTQVTVSS", "polyreactivity (PSR sort gate)": "low polyreactivity"},
      {"sequence": "QVQLVESGGGLVKAGGSLRLSCAASGSTFDSYAMGWYRQPPGKERELVASITSNDGSTSYADSVKGRFTISRDNAKNTVYLQMNSLKPEDTAVYYCAASSLYSDYGHRNLADGPYDYWGQGTQVTVSS", "polyreactivity (PSR sort gate)": "low polyreactivity"},
      {"sequence": "QVQLVESGGGLVKAGGSLRLSCAASGSTFYSYVMGWYRQAPGKERELFAAISRRGGSTYYADSVKWRFTISSDNAKNTVYLQMNSLKPEDTAVYYCAASAPVAGYKYRYDYWGQGTQVTVSS", "polyreactivity (PSR sort gate)": "high polyreactivity"},
      {"sequence": "QVQLVESGGGLVKAGGSLRLSCAATGFTLSWYDMGWYRPAPGKERELVATISRGGITYYADSVKGRFTISRDNAKNTVYLQMNSLKPEDTAVYYCAADYRYGWYRYDYWGQGTQVTVSS", "polyreactivity (PSR sort gate)": "high polyreactivity"},
      {"sequence": "QVQLVESGGGLVKAGGSLRLSCAATGRIFTYMGWYRQARGKERELVAGISWRGTSTYYADSVKGRFTISRDNAKNSVYLQMNSLKPEDTAVYYCAARWAYHVRGDYWGQGTQVTVSS", "polyreactivity (PSR sort gate)": "low polyreactivity"},
      {"sequence": "QVQLVESGGGLVKAGGSLRLSCAAYGIIYYPYAMGRYRHAPGKEWELVAAIDRSGSSTYYADSVKGRFTISRDNAKNTVYVQMNSLKPEDTAVYYCAAAHTYFTAYGDYWGQGTQVTVSS", "polyreactivity (PSR sort gate)": "low polyreactivity"},
      {"sequence": "QVQLVESGGGLVKAGGSLRLSCAAYGITFIRYAMGWYRQAPGKERELVAVMTRSGGRTYYADSVKGRFTISRDNAKNTVYLQMNSLKPEDTAVYYCAARAYGYDEYEYWGQGTQVTVSS", "polyreactivity (PSR sort gate)": "high polyreactivity"},
      {"sequence": "QVQLVESGGGLVKAGGSLRLSRAASGSIFPRYAMGWNRQAPGKERELVAAITSSAASTYYADSVKGRFTISRDNAKNTVYLQMNSLKPEDSAVYYCAASGPWSYWYYYWGQGTQVTVSS", "polyreactivity (PSR sort gate)": "low polyreactivity"},
      {"sequence": "QVQLVESGGGLVKAGGSLRLSSAATGFIFAYYDMGWYRQAPGKERELVAAISSRGGTYYADSVKGRFTISRDNATITVYLKMNCLKPEDTAVYDCAAASYTWVSRGYEYWGQGTQVTVSS", "polyreactivity (PSR sort gate)": "high polyreactivity"}
    ]}
  ]
}
